This note sets out measurements from PMC7886694.

The subject of data set [1] is His-GlnR (Mycobacterium smegmatis). Put plainly: BLI. As to conditions: 37 C, 200 mM KCl, 2 mM Mg2+, BLI: 10 mM HEPES pH 8.0, 2 mM MgCl2, 0.1 mM EDTA, 10 ug/ml BSA, 0.02% Tween-20 (running buffer), EMSA: 2 ng biotin probe in 10 uL, Beyotime …. (In general: A gel shift assay detects complexes by their altered migration in electrophoresis.)
In another data set the test system is His-PrpR. Kind of data set: BLI. Conditions: 37 C, 200 mM KCl, 2 mM Mg2+, BLI: 10 mM HEPES pH 8.0, 2 mM MgCl2, 0.1 mM EDTA, 10 ug/ml BSA, 0.02% Tween-20 (running buffer), EMSA: 2 ng biotin probe in 10 uL, Beyotime ….

Turning to Picl (Msm icl promoter), the Kd (as a rule, the equilibrium constant for the complex coming apart) in data set [1] was found to be 0.0337 µM; in the data set on His-PrpR it was 0.171 µM.
